In article PMC3575409, “Identification of a Novel Protein-Protein Interaction Motif Mediating Interaction of GPCR-Associated Sorting Proteins with G Protein-Coupled Receptors” (PLoS ONE, 2013):
Several values for one entry are separate records, joined by “and”; a condition that tells them apart may be missing. Equal values may be shown once.

What was measured:
[1] = system: full-length CNR2 (cannabinoid receptor type 2); assay: SPR saturation binding, CNR2; set-up: species or system human
Description: The human ADRB2 and CNR2 receptors were produced using the P. pastoris expression system as previously described, [16]. After methanol-induced receptor expression, cells were washed with PBS pH 7.0 and resuspended in ice-cold buffer A (50 mM Tris-HCl pH 7.4, 500 mM NaCl, 10% glycerol, 5 mM EDTA, 1 mM PMSF, 2 mM DDT). Cells were then lysed with two cycles of 20 s shaking and 20 s cooling on ice using 0.5 mm glass beads in a FastPrep 24 device. Unbroken cells and cell debris were removed by centrifugation (3000 g, 5 min, 4°C) and the membrane fraction from the supernatant was pelleted by ultracentrifugation (100,000 g, 45 min, 4°C). […] Finally membranes were resuspended in buffer B and quantified with the bicinchoninic acid (BCA) method (Pierce).
Approximately 150 mg membrane proteins were extracted by 5 min incubation at room temperature in buffer C (50 mM Tris-HCl pH 7.4, 500 mM NaCl, 10% glycerol, 1 mM PMSF, 2 mM DTT, 50 mM imidazole, 1% (w/v) DDM, 0.1% (w/v) CHS). […] Imidazole was removed from the eluted fraction using a HiTrap 5 ml desalting column (GE Healthcare), purified proteins were quantified using the BCA assay (Pierce) and receptor integrity was analyzed by SDS-PAGE. […]

[2] = system: GFP-tagged M1 receptor in HEK293 cells; assay: Co-immunoprecipitation, M1; format: cell-based; conditions: 48 h expression, anti-GFP immunoprecipitation
Description: HEK293 cells stably expressing N-terminal GFP-tagged ADRB1, ADRB2, CALCR and M1 or MyrPalm-mYFP were transfected with pcDNA3.1 containing the sequence for a central domain of GASP-1 (AA 380 to 1073) using JetPEI reagent (polyplus transfection) according to the instructions from the manufacturer. After 48 h of expression, cells were washed twice with PBS and lysed in a buffer containing 10 mM Tris-HCl, pH 7.4, 150 mM NaCl, 25 mM KCl, 0.3% Triton X-100 and cOmplete protease inhibitors (Roche) for 1 h at 4°C under agitation. 500 µg of cleared lysates were incubated with 1 µg of a mouse monoclonal anti-GFP antibody (Invitrogen) overnight at 4°C, followed by an incubation with 40 µl of protein A-Sepharose beads for an additional 2 h at 4°C. Beads were then washed five times in lysis buffer and precipitates were resolved on an 8% gel by SDS–PAGE and electrotransferred to immobilon-P membranes (Millipore) in 50 mM Tris-boric acid for 1 h at 300 mA. Membranes were blocked with 5% non-fat powder milk in TBS-Tween (50 mM Tris-HCl pH 8, 150 mM NaCl, 0.4% Tween-20) for 1 h at room temperature. […] For immunodetection of GASP or GFP-tagged receptors directly from cell lysates, 10 µg of proteins were loaded on SDS gels and analyzed following the procedure described above. Finally, membranes were washed in TBS-Tween and detected by chemiluminescence (ECL prime, GE Healthcare). […]

dissociation rate constant k d ([1]; 25°C, 50 mM Tris-HCl pH 7.4, 150 mM NaCl, 0.1% DDM, 0.01% CHS, captured GST-tagged central domain (AA 380–1073)): 6.5±0.1×10^−4 s^−1 and < 10^−3 s^−1
B1: central domain of GASP-1: central portion of GASP-1 (AA 380 to 1073) that contains 19 GASP motif (protein)
chain: MTKEEAKTKARARAKQEARSEEEALIGTWFWATDESSMADEASIESSLQVEDESIIGSWFWTEEEASMGTGASSKSRPRTDGERIGDSLFGAREKTSMKTGAEATSESILAADDEQVIIGSWFWAGEEVNQEAEEETIFGSWFWVIDAASVESGVGVSCESRTRSEEEEVIGPWFWSGEQVDIEAGIGEEARPGAEEETIFGSWFWAENQTYMDCRAETSCDTMQGAEEEEPIIGSWFWTRVEACVEGDVNSKSSLEDKEEAMIPCFGAKEEVSMKHGTGVRCRFMAGAEETNNKSCFWAEKEPCMYPAGGGSWKSRPEEEEDIVNSWFWSRKYTKPEAIIGSWLWATEESNIDGTGEKAKLLTEEETIINSWFWKEDEAISEATDREESRPEAEEGDIIGSWFWAGEEDRLEPAAETREEDRLAAEKEGIVGSWFGAREETIRREAGSCSKSSPKAEEEEVIIGSWFWEEEASPEAVAGVGFESKPGTEEEEITVGSWFWPEEEASIQAGSQAVEEMESETEEETIFGSWFWDGKEVSEEAGPCCVSKPEDDEEMIVESWFWSRDKAIKETGTVATCESKPENEEGAIVGSWFEAEDEVDNRTDNGSNCGSRTLADEDEAIVGSWFWAGDEAHFESNPSPVFRAICRSTCSVEQEPDPSRRPQSWEEVTVQFKPGPWGRVGFPSISPFRFPKE
modifications: left off: GST, N-terminal, kept
notes: central portion of GASP-1 (AA 380 to 1073) that contains 19 GASP motif
kinetics of the interaction ([1]; full-length CNR2): very stable and had a slow association rate
co-immunoprecipitation with M1 [2]: co-immunoprecipitated
